In PMC5027613, “A second DNA binding site in human BRCA2 promotes homologous recombination”:

What was measured:
BRCA2 CTD;DSS1 [1] = target: T1, BRCA2 CTD;DSS1 (human;human?, UniProt P51587;P60896 2474-3190;1-70, |); experiment: EMSA; EMSA: 25 mM Tris acetate pH 7.5, 1 mM DTT, 1 mM MgCl2, 2 mM CaCl2, 0.2 uM nucleotides DNA, 1 h at 37 C; 6% native PAGE in 1x TAE; details: protein: recombinant;recombinant; tags: 6xHis-SUMO;; copies: 1;1; label: 5'-32P on oAC405; blunt
BRCA2 full length = BRCA2 full length (human, UniProt P51587 1-3418); experiment: EMSA; ~100 times lower concentration needed than BRCA2T2; EMSA: 25 mM Tris acetate pH 7.5, 1 mM DTT, 1 mM MgCl2, 2 mM CaCl2, 0.2 uM nucleotides DNA, 1 h at 37 C; 6% native PAGE in 1x TAE; details: protein: recombinant; tags: N-terminal EGFP-MBP; label: 5'-32P
BRCA2 CTD;DSS1 [2] = target: T1, BRCA2 CTD;DSS1; experiment: EMSA; lower yield than BRCA2T2; EMSA: 25 mM Tris acetate pH 7.5, 1 mM DTT, 1 mM MgCl2, 2 mM CaCl2, 0.2 uM nucleotides DNA, 1 h at 37 C; 6% native PAGE in 1x TAE; details: protein: recombinant;recombinant, tags: 6xHis-SUMO;, copies: 1;1
BRCA2T2 (NTD) [3] = target: T2, BRCA2T2 (NTD) (human, UniProt P51587 251-500); experiment: EMSA; yield similar to dsDNA (~40%) at 1.5 uM; EMSA: 25 mM Tris acetate pH 7.5, 1 mM DTT, 1 mM MgCl2, 2 mM CaCl2, 0.2 uM nucleotides DNA, 1 h at 37 C; 6% native PAGE in 1x TAE; details: protein: recombinant; tags: N-terminal 2xMBP, 2 NLS; label: 5'-32P
T2 sequence: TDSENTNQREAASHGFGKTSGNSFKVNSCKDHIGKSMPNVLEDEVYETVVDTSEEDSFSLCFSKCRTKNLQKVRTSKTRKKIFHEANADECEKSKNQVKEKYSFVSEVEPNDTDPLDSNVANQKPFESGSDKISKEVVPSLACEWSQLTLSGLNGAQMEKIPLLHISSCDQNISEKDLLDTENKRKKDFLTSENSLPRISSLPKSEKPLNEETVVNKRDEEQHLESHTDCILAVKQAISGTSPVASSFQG

BRCA2T2 (NTD) [4] = target: T2, BRCA2T2 (NTD); experiment: EMSA; higher yield than CTD; EMSA: 25 mM Tris acetate pH 7.5, 1 mM DTT, 1 mM MgCl2, 2 mM CaCl2, 0.2 uM nucleotides DNA, 1 h at 37 C; 6% native PAGE in 1x TAE; details: protein: recombinant, tags: N-terminal 2xMBP, 2 NLS
BRCA2 CTD;DSS1 [5] = target: T1, BRCA2 CTD;DSS1; experiment: EMSA; ~40-fold lower yield than BRCA2T2 at 1 uM; EMSA: 25 mM Tris acetate pH 7.5, 1 mM DTT, 1 mM MgCl2, 2 mM CaCl2, 0.2 uM nucleotides DNA, 1 h at 37 C; 6% native PAGE in 1x TAE; details: protein: recombinant;recombinant; tags: 6xHis-SUMO;; copies: 1;1; label: 32P; 1:2 1:3, two 42 bp duplexes with 83 nt gap
BRCA2T2 (NTD) [6] = target: T2, BRCA2T2 (NTD); experiment: EMSA; EMSA: 25 mM Tris acetate pH 7.5, 1 mM DTT, 1 mM MgCl2, 2 mM CaCl2, 0.2 uM nucleotides DNA, 1 h at 37 C; 6% native PAGE in 1x TAE; details: protein: recombinant; tags: N-terminal 2xMBP, 2 NLS; label: 32P; 1:2 1:3, two 42 bp duplexes with 83 nt gap
BRCA2T1 [7] = target: T3, BRCA2T1 (human, UniProt P51587 1-250); experiment: EMSA; up to 300 nM; EMSA: 25 mM Tris acetate pH 7.5, 1 mM DTT, 1 mM MgCl2, 2 mM CaCl2, 0.2 uM nucleotides DNA, 1 h at 37 C; 6% native PAGE in 1x TAE; details: protein: recombinant; tags: N-terminal 2xMBP, 2 NLS; label: 5'-32P
T3 sequence: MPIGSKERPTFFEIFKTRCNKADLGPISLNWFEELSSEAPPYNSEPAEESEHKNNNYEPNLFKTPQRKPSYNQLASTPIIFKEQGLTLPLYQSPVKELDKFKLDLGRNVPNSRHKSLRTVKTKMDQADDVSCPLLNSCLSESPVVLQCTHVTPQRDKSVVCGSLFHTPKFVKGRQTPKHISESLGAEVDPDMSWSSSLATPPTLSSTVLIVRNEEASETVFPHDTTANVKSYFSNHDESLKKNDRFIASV

BRCA2T2 (NTD) [8] = target: T2, BRCA2T2 (NTD); experiment: pull-down; titrated out by excess free dT40; EMSA: 25 mM Tris acetate pH 7.5, 1 mM DTT, 1 mM MgCl2, 2 mM CaCl2, 0.2 uM nucleotides DNA, 1 h at 37 C; 6% native PAGE in 1x TAE; details: protein: recombinant; tags: N-terminal 2xMBP, 2 NLS; label: biotin, on streptavidin beads
BRCA2T1 [9] = target: T3, BRCA2T1; experiment: pull-down; not titrated out by free dT40; EMSA: 25 mM Tris acetate pH 7.5, 1 mM DTT, 1 mM MgCl2, 2 mM CaCl2, 0.2 uM nucleotides DNA, 1 h at 37 C; 6% native PAGE in 1x TAE; details: protein: recombinant; tags: N-terminal 2xMBP, 2 NLS; label: biotin, on streptavidin beads

B1: 40 bp dsDNA (oAC405/oAC406) (dsDNA)
DNA 1: TAATACAAAATAAGTAAATGAATAAACAGAGAAAATAAAG
DNA 2: CTTTATTTTCTCTGTTTATTCATTTACTTATTTTGTATTA
binding result (BRCA2 CTD;DSS1 [1]): no binding

B2: 167mer ssDNA (oAC423) (ssDNA)
DNA: CTGCTTTATCAAGATAATTTTTCGACTCATCAGAAATATCCGTTTCCTATATTTATTCCTATTATGTTTTATTCATTTACTTATTCTTTATGTTCATTTTTTATATCCTTTACTTTATTTTCTCTGTTTATTCATTTACTTATTTTGTATTATCCTTATCTTATTTA
binding result (BRCA2 full length): binds
binding result (BRCA2 CTD;DSS1 [2]; label: 5'-32P): binds
binding result (BRCA2T2 (NTD) [3]): binds

B3: 3' overhang (oAC423 + oAC490 as stated) (mixed)
DNA 1: B2 DNA
DNA 2: TAAATAAGATAAGGATAATACAAAATAAGTAAATGAATAAAC
binding result (BRCA2 CTD;DSS1 [2]; label: 32P on oAC490): binds
binding result (BRCA2T2 (NTD) [4]; label: 32P on oAC490): binds

B4: gapped DNA (oAC423 + oAC403 + oAC490) (mixed)
DNA 1: B2 DNA
DNA 2: CGGATATTTCTGATGAGTCGAAAAATTATCTTGATAAAGCAG
DNA 3: B3 DNA 2
binding result (BRCA2 CTD;DSS1 [5]): binds
binding signal (BRCA2T2 (NTD) [6]): ~40 fold higher yield than CTD at 1 uM

B5: 5' overhang (oAC423 + oAC403 as stated) (mixed)
DNA 1: B2 DNA
DNA 2: B4 DNA 2
binding result (BRCA2 CTD;DSS1 [2]; label: 32P): binds
binding result (BRCA2T2 (NTD) [4]; label: 32P): binds

B6: dT40 (oAC379) (ssDNA)
DNA: TTTTTTTTTTTTTTTTTTTTTTTTTTTTTTTTTTTTTTTT
binding result (BRCA2T1 [7]): no binding

B7: dT80 biotin (ssDNA)
DNA: TTTTTTTTTTTTTTTTTTTTTTTTTTTTTTTTTTTTTTTTTTTTTTTTTTTTTTTTTTTTTTTTTTTTTTTTTTTTTTTT
modifications: 3'-biotin
binding result (BRCA2T2 (NTD) [8]): binds
binding result (BRCA2T1 [9]): no binding
